Reference: US20210180067, “NUCLEIC ACID APTAMERS” (UNIVERSITY OF IOWA RESEARCH FOUNDATION, published 2021)

Tests used:
[1] = target: T1, CD25 (IL-2 receptor alpha, IL2RA) (Homo sapiens, UniProt P01589 P01589:22-240); test: pulldown; 100 nM RNA, CD25 Dynabeads, 2 mM CaCl2, 37 C, RT-qPCR; prefers unoccupied CD25; conditions: tags: His-tag; Thermo Fisher
Method: (§1) Aptamer binding to recombinant CD25 protein or CD25-IL2 receptor-ligand complex-coated Dynabeads was measured as follows. Streptavidin-coated Dynabeads, antibody-coupling kit, and Dynabeads for His-tagged protein binding were obtained from Thermo Fisher. Histidine-tagged recombinant human CD25 (Thermo Fisher, USA) was coated onto His-tag-binding Dynabeads (Thermo Fisher, USA). Protein coated beads were blocked with binding buffer [HEPES-buffered saline with 2 mM CaCl2) containing 0.1 mg/ml BSA and tRNA. In cases where CD25-IL2 complexes were tested, equimolar amounts of IL2 was incubated with CD25-coated beads for 30 minutes at 37 degrees Celsius and the unbound IL2 was washed away. Folded aptamers were then incubated with CD25- or CD25-IL2-coated beads at a concentration of 100 nM for 30 minutes at 37 degrees Celsius under rotation. Beads were then washed thrice with binding buffer at 37 degrees Celsius. Bound RNA aptamers were extracted using Trizol spiked with M12-23 reference control and were quantified using SyBR green-based RT-qPCR assay. The bead-bound SEL2 aptamers were normalized to M12-23 reference control before further analysis. The values obtained for Treg-binding aptamers were normalized to the negative control aptamer, C-248, and plotted. Nucleotides corresponding to the N20 region are underlined and italicized.

[2] = target: T1, CD25 (IL-2 receptor alpha, IL2RA); test: pulldown; 100 nM RNA, CD25 Dynabeads, HEPES saline 2 mM CaCl2, BSA, tRNA, 37 C, RT-qPCR; greater than C-248; conditions: tags: His-tag; Thermo Fisher
Method: as §1

[3] = target: T2, CD25 (IL2RA)-IL2 complex (Homo sapiens, UniProt P01589;P60568 P01589:22-240,P60568:21-153); test: pulldown; binding increased vs unoccupied CD25; 2 mM CaCl2, 37 C, RT-qPCR; correlates with IL2 occupancy (R2=0.724); conditions: tags: CD25 His-tagged, Thermo Fisher
T2 sequence (P01589 22-240, chain 1 of 2): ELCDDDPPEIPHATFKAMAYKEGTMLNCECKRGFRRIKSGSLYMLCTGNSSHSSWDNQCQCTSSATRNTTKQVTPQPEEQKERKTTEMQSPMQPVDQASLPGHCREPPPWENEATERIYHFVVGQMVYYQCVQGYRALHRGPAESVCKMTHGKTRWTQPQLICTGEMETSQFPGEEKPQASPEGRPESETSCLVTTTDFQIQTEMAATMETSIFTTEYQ
T2 sequence (P60568 21-153, chain 2 of 2): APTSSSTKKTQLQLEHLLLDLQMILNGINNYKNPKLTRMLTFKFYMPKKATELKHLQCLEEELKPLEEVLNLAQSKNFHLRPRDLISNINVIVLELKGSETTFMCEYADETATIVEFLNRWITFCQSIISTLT
Method: as §1

[4] = target: T1, CD25 (IL-2 receptor alpha, IL2RA); test: pulldown; negative control used for normalisation; 2 mM CaCl2, 37 C, RT-qPCR; conditions: tags: His-tag; Thermo Fisher
Method: as §1

[5] = target: T2, CD25 (IL2RA)-IL2 complex; test: pulldown; similar binding to unoccupied CD25 and complex; 2 mM CaCl2, 37 C, RT-qPCR; conditions: tags: CD25 His-tagged, Thermo Fisher
Method: as §1

[6] = target: T1, CD25 (IL-2 receptor alpha, IL2RA); test: pulldown; 100 nM RNA, CD25 Dynabeads, 2 mM CaCl2, 37 C, RT-qPCR; greater than C-248; conditions: tags: His-tag; Thermo Fisher
Method: as §1

[7] = target: T2, CD25 (IL2RA)-IL2 complex; test: pulldown; binding increased vs unoccupied CD25; 2 mM CaCl2, 37 C, RT-qPCR; correlates with IL2 occupancy (R2=0.661); conditions: tags: CD25 His-tagged, Thermo Fisher
Method: as §1

T1 sequence (P01589 22-240, one chain of several): as the sequence (P01589 22-240, chain 1 of 2) above

B1: Tr-6 (ssRNA)
RNA: GGGAGGACGAUGCGGCGUUUCCUCUGGUUCGUCCCCAGACGACUCGCCCGA
modifications: 2'-F C and U
- binding result [1]: binds

B2: Tr-1 (ssRNA)
RNA: GGGAGGACGAUGCGGUCCUGUCGUCUGUUCGUCCCCAGACGACUCGCCCGA
modifications: 2'-F C and U
- binding result [2]: binds
- binding result [3]: binds

B3: Tr-8 (ssRNA)
RNA: GGGAGGACGAUGCGGGCCGUUGUUGUGUGCCGCCCCAGACGACUCGCCCGA
modifications: 2'-F C and U
- binding result [1]: binds

B4: C-248 (ssRNA)
RNA: GGGAGGACGAUGCGGCACACCGAAAUGUCCCGACUCAGACGACUCGCCCGA
modifications: 2'-F C and U
- binding result [4]: no binding

B5: Tr-11 (ssRNA)
RNA: GGGAGGACGAUGCGGAUUCUGGUUACUGGCCGCCCCAGACGACUCGCCCGA
modifications: 2'-F C and U
- binding result [5]: binds
- binding result [6]: binds

B6: Tr-7 (ssRNA)
RNA: GGGAGGACGAUGCGGUGAGUCGUUCCCUUCGUCCCCAGACGACUCGCCCGA
modifications: 2'-F C and U
- binding result [7]: binds
- binding result [6]: binds
